The values that follow come from patent publication US20100184959A1 (AstraZeneca / MedImmune, published 2010).

Residue numbers refer to the chain shown, from its start.

The labels stand for the following.
B1: Fc polypeptide variant 136D04b (Fcγ1, in vitro translated) (other)
chain: AHTCPPCPAPELLGGPSVFLFPPKPKDTLMISRTPEVTCVVVDVSHEDPEVKFNWYVDGVEVHNAKTKPREEQYNSTYRVVSVLTVLHQDWLNGKEYKCKVSNKALPAPIEKIISKAKGQPREPQVYTLPPSREEMTKNQVSLTCLVKGFYPSDIAVEWESNGQPENNYKTTPPVLDSDGSFFLYSKLTVDMSRWQQGNVFSCSVMHEALHNHYTQKSLSLSPGK
notes: Fc region only, in vitro translated with 35S-methionine for RIA
B2: Fc polypeptide variant 126F07 (Fcγ1, in vitro translated) (other)
chain: B1 chain with P6L, T67A, I113T, L143Q, N167S, M192K, S218G
notes: as for B1
B3: Fc polypeptide variant 136G11 (Fcγ1, in vitro translated) (other)
chain: AHTCPPCPAPELLGGPSVFLFPPKAKDTLMISRTPKVTCVVVDVSHEDPEVKFNWYVNGVEVHNARTKPREEQYDSAYRVVSVLTVLHQDWLNGKEYKCEVSNKALPAPIEKTISKAKGRPREPQVYTLPPAREEMTKNQVSPTCLVKGFYPSDIAVEWESNGQPENNYKTTPPVLDSDGSFFLYSKLTVDKSRWQQGNVFSCSVMHEALHNHYTQKSLSLSPGK
notes: as for B1
B4: Fc polypeptide variant 135A09 (Fcγ1, in vitro translated) (other)
chain: B1 chain with E47K, Y78H, I113T, Q120R, M192K, V200I, G224A
notes: as for B1
B5: Fc polypeptide variant 135C09 (Fcγ1, in vitro translated) (other)
chain: B1 chain with T3A, R79C, S82G, D90N, N93D, I113T, L129S, M192K, N199S
notes: as for B1
B6: Fc polypeptide variant 121F02 (Fcγ1, in vitro translated) (other)
chain: B1 chain with F21S, P25L, D43V, V44A, I113T, S161N, T189I, M192K
notes: as for B1
B7: Fc polypeptide variant 135E07 (Fcγ1, in vitro translated) (other)
chain: B1 chain with H2Y, P8S, V101A, E111D, I113T, K116R, S142C, M192K
notes: as for B1
B8: Fc polypeptide variant 125H10 (Fcγ1, in vitro translated) (other)
chain: B1 chain with M30T, P69L, I113T, P130A, R133W, N168D, S186G, M192K, S204F, A209S
notes: as for B1
B9: Fc polypeptide variant 125E05 (Fcγ1, in vitro translated) (other)
chain: B1 chain with V18A, S45G, I113T, G119E, E134G, M192K
notes: as for B1
B10: Fc polypeptide variant 126G05 (Fcγ1, in vitro translated) (other)
chain: B1 chain with F19L, V51A, I113T, K118Q, M192K, L219F
notes: as for B1
B11: Fc polypeptide variant 110H08 (Fcγ1, in vitro translated) (other)
chain: B1 chain with P22L, K24E, I113T, D177G, K187R, M192K
notes: as for B1
B12: Fc polypeptide variant 136D04a (Fcγ1, in vitro translated) (other)
chain: B1 chain with P223R
notes: as for B1
B13: Fc polypeptide variant 125B01 (Fcγ1, in vitro translated) (other)
chain: B1 chain with H2N, F21L, I113T, T171A, M192K, H211P
notes: as for B1
B14: Fc polypeptide variant 110B09 (Fcγ1, in vitro translated) (other)
chain: B1 chain with N54D, R70Q, V83A, I113T, I155V, T172A, V190A, M192K, K217E
notes: as for B1
B15: Fc polypeptide variant 3C11 (Fcγ1, in vitro translated) (other)
chain: B1 chain with I113T, Q125R, N139Y, M192K, K217R
notes: as for B1
B16: Fc polypeptide variant 2H06 (Fcγ1, in vitro translated) (other)
chain: B1 chain with E47G, Y56H, N103S, I113T, K148R, M192K
notes: as for B1
B17: Fc polypeptide variant 2C06 (Fcγ1, in vitro translated) (other)
chain: B1 chain with E61G, N93K, E111G, I113T, R122Q, L143P, M192K, S220T
notes: as for B1
B18: Fc polypeptide variant 2A11 (Fcγ1, in vitro translated) (other)
chain: B1 chain with C39Y, K68E, L84F, Q89R, E111G, I113T, M192K, Q216L
notes: as for B1
B19: Fc polypeptide variant 2F01 (Fcγ1, in vitro translated) (other)
chain: AHTCPPCPAPELLGGPPVFLFPPKPKDTLMIPRTPEVTCVVVDVNHEDPEVKFNWYVDGVEVRNAKTKPREEQYNSTYRVVSVLTVLHQDWLSGKEYKCKVSNKALPAPIEKTISKAKGQPREPQVYTLPPSREEMTKNQVSLTCLVKGLYPSDITVEWESNGQPENDCKTTPPVLDSDGSSFLYSKLTVDKSRWQQGNVFSCSVMHKAPHNHYTQKSLSLSPGE
notes: as for B1

T2 sequence (P02745 23-245 limits assumed, chain 1 of 3): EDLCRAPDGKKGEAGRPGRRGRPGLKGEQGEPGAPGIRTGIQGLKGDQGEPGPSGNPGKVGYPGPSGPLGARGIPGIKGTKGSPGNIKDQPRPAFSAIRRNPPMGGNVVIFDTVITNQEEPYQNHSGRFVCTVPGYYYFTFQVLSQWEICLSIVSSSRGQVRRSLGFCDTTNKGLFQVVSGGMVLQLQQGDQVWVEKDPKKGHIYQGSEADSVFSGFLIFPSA
T2 sequence (P02746 28-253 limits assumed, chain 2 of 3): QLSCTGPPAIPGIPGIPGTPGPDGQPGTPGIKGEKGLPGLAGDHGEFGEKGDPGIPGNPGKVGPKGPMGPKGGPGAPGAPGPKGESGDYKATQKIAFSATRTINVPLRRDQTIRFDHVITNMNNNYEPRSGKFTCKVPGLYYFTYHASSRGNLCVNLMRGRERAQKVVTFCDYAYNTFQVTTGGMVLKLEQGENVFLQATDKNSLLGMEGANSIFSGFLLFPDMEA
T2 sequence (P02747 29-245 limits assumed, chain 3 of 3): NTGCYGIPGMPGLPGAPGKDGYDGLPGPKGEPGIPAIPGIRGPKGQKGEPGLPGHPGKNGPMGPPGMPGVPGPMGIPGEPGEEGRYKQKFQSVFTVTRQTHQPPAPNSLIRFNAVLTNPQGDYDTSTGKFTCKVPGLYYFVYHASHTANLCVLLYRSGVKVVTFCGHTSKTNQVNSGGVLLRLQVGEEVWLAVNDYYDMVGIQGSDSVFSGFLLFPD
T1 sequence (P08637 17-208 F176V): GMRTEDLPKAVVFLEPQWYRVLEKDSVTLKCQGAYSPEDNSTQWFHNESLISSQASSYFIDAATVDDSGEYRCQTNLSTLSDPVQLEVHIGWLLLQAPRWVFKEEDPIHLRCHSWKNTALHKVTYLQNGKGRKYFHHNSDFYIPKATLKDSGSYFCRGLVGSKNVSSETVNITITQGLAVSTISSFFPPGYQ

The first assay concerns the target T1, human FcγRIIIa V158 allotype, extracellular domain (human, UniProt P08637 17-208).
T1 construct: extracellular domain; expressed in HEK-EBNA cells; also called hFcγRIIIa; CD16; not shown: Flag10His tag of the vector
Put plainly: RIA, 35S-labelled Fc on coated receptor. The source says:
Fc polypeptide variants were screened for binding to FcγRIIIa using a RIA (radio immunoassay) as described in Jermutus et al. (2001, PNAS 98(1): 75-80). The Fc region from the plasmid for each variant was PCR amplified to produce a linear DNA template. This template was purified and a T7 promoter sequence attached at the 5′ end to enable in vitro transcription. The resulting mRNA was purified using G25 Sephadex™ columns. For each variant, in vitro translations in the presence of 35S-labelled methionine were set up at 37° C. for 40 min. The translations were stopped using PBS with 0.05% Tween 20. The translation mixture was added to a plate coated with 100 nM hFcγRIIIa and incubated for 2 hours at room temperature. The plates were washed three times in PBS with 0.05% Tween 20 and three times in PBS. The bound protein was eluted with 0.1M triethylamine and the radiolabel quantified by liquid scintillation counting.
As to B1, the “RIA for RIIIa (V158)” value stood at 2.3 fold over wild-type. Consider B2, for which the “RIA for RIIIa (V158)” value came to 1.9 fold over wild-type.

Regarding B3, the “RIA for RIIIa (V158)” value was 2.3 fold over wild-type. Take B4: the “RIA for RIIIa (V158)” value worked out at 3.4 fold over wild-type. The same measure, in the same setting: as for B5, the figure is 1.7 fold over wild-type; as for B6, 1.7 fold over wild-type. On the same count and under the same terms, in the case of B7 it was 1.7 fold over wild-type; in that of B8, 1.7 fold over wild-type. Regarding B9, the “RIA for RIIIa (V158)” value was found to be 4.7 fold over wild-type. Take B10: the “RIA for RIIIa (V158)” value was 1.8 fold over wild-type.

Take B11: the “RIA for RIIIa (V158)” value turned out to be 2.7 fold over wild-type. On the same count and under the same terms, in the case of B12 it was 2.3 fold over wild-type.

B13: the “RIA for RIIIa (V158)” value worked out at 1.3 fold over wild-type. Still for that read-out and setting: as for B14, the figure is 4.4 fold over wild-type.

Another assay has as its target T2, human C1q (human, UniProt P02745 23-245; P02746 28-253; P02747 29-245).
T2 construct: Human C1q (Sigma) in the ELISA; hC1q coated at 100 nM in the RIA; also called hC1q
Put plainly: RIA, 35S-labelled Fc on coated C1q. The source says: IgG1 Fc variants arising from round three outputs of Fcγ1 selections against human C1q using ribosome display, were screened for binding using the primary RIA as described in Jermutus et al. (2001, PNAS 98(1): 75-80). In brief, the Fc region from the plasmid for each variant (96 well format) was PCR amplified to produce a linear DNA template. This template was gel purified and reamplified attaching the T7 promoter sequence for T7 directed in vitro transcription and the resulting mRNA purified on G25 Sephadex columns. For each variant, in vitro translations in the presence of 35S-labelled methionine was performed at 37° C. for 40 mins. The translations were stopped with PBS with 0.05% Tween 20. The translation mixture was incubated on a plate coated with 100 nM hC1q for 2 hours at room temperature. Plates were washed three times in PBS with 0.05% Tween 20 and three times in PBS. The remaining radioactivity was eluted with 0.1M triethylamine and quantified by liquid scintillation counting.
With B15, the “RIA for C1q” value is 1.2 fold over wild-type. Same read-out and setting: as for B16, the figure is 1.2 fold over wild-type; as for B17, 1.4 fold over wild-type. Same read-out and setting: as for B18, the figure is 2.4 fold over wild-type; as for B19, 1.5 fold over wild-type.
